Among the data in patent publication US20250340597A1 are Kd values, retold here.

The target in this experiment is CH848.d0949.10.17 DT (HIV-1). Kind of experiment: not stated (FIG. 4).

As to DH270 UCA Fab, the Kd is 60 nM.

The Kd is a measure of binding affinity in units of concentration.
